Patent US20240366811A1, “RA[…] P[…] USES THEREOF” (TIANJIN CONJUSTAR BIOLOGICS CO., LTD., priority 2023, published 2024)
Where two headings read alike, the source gives them in different places. *1 amine or outer side, *2 acyl side, *3 side chain or, on linkers, in order; H or OH if unused. Where a SMILES comes first, the peptide text is derived from it. Bridges are numbered along the chain shown (N, C = ends). [ ]: non-standard residue; d: D form. The star is where a group is joined. TATA = O=C(CC[*:1])N1CN(C(=O)CC[*:2])CN(C(=O)CC[*:3])C1; NOTA = O=C(O)CN1CCN(CC(=O)O)CCN(CC(=O)*)CC1; Hyp = O=C(O)[C@@H]1C[C@@H](O)CN1; hArg = N=C(N)NCCCC[C@H](N)C(=O)O; Pen = CC(C)(S)[C@H](N)C(=O)O; βAla = NCCC(=O)O; Sar = CNCC(=O)O

Tests used:
in vivo = conditions: nude, mouse, iv, 11.1 MBq, total radioactivity
Protocol: The tissue distribution characteristics of the compounds in PC-3 tumor-bearing mice were studied by using the PC-3 tumor-bearing mice model, small animal PET/CT scans were performed at different time points after a single intravenous administration of the compounds, tumors and other regions of interest were delineated to obtain radioactive uptake values.
Tumor cells in the logarithmic growth phase were used for in vivo tumor inoculation. PC-3 cells were suspended in saline at a density of 5×10^6/mL, and a total of 15 nude mice were inoculated under the right flank at 0.1 mL per inoculation point. Imaging and biodistribution experiments were performed when tumors grew to 300-600 mm^3 (tumor volume measurement method: the long diameter and short diameter of the tumor were measured, and its volume calculation formula was: volume=0.5× major diameter× minor diameter^2). The drug was distributed according to the animal dose on the drug distribution table, and a certain volume of compound diluent was absorbed by a 1 mL insulin syringe, and the initial radioactive dose and initial dosimetry time were recorded. The injection time, residual radioactivity dose, and residual dose determination time were recorded after tail vein injection in tumor-bearing mice. […] PET/CT scans of animals were performed at different time points after administration. During the scanning process, the animals continued to inhale 1-2% isoflurane to maintain the anesthetic effect, and the scanning time was recorded. […] After the completion of PET/CT scanning, the images were reconstructed and the images and data were processed with the software of the device. The tumor, heart (including contents), kidney, intestine, and muscle were delineated as regions of interest. The percentage injection dose rate per gram of tissue in the area of interest (% ID/g) was obtained. The data of biological distribution was expressed as the percentage of radioactive count per gram of tissue or organ to the total dose (radioactive count) (% ID/g).
Data for each sampling point were expressed as the mean standard deviation (mean SD) of 3 tumor-bearing mice.

PC-3 tumor-bearing mice = conditions: 4 h, dissected tissue uptake ratio
Protocol: In vivo radiobiological distribution assay: mice in the PET/CT imaging group were sacrificed immediately after the end of 4 h imaging, and mice in the inhibition group were sacrificed after 1 h imaging. Tissue samples of tumor, blood, heart, lung, liver, spleen, kidney, stomach, intestine, bone, muscle, and brain were collected by dissection, weighed and their radioactive counts were recorded. The probe uptake value in each tissue and organ of each experimental animal is expressed as radioactivity per gram of tissue as a percentage of the dose administered (% ID/g).

[1] = tumor and heart (including contents)
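Wherever Tumor/blood is given: dissected tissues were weighed and their radioactivity counted, uptake given as percent of administered dose per gram, tissue ratios derived from these values.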
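Wherever Tumor/bone is given: dissected tissues were weighed and their radioactivity counted, uptake given as percent of administered dose per gram, tissue ratios derived from these values.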
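Wherever Tumor/brain is given: dissected tissues were weighed and their radioactivity counted, uptake given as percent of administered dose per gram, tissue ratios derived from these values.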
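Wherever Tumor/heart is given: dissected tissues were weighed and their radioactivity counted, uptake given as percent of administered dose per gram, tissue ratios derived from these values.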

## CC(C)C[C@@H]1NC(=O)[C@@H]2CSCCC(=O)N3CN(CN(C3)C(=O)CCSC(C)(C)[C@@H](C(N)=O)NC(=O)[C@H](CCCCNC(=N)N)NC(=O)[C@H](Cc3c[nH]c4ccccc34)NC(=O)[C@@H](CC(=O)O)NC(=O)[C@@H]3CCCN3C(=O)[C@H](Cc3c[nH]cn3)NC1=O)C(=O)CCSC[C@H](NC(=O)[C@@H]1CC(=O)NCCCC[C@H](NC(=O)CN(C)C(=O)CN(C)C(=O)CN(C)C(=O)CN(C)C(=O)CN(C)C(=O)CN(C)C(=O)CN(C)C(=O)CN(C)C(=O)CN(C)C(=O)CN(C)C(=O)CCNC(=O)CN3CCN(CC(=O)O)CCN(CC(=O)O)CC3)C(=O)N[C@@H](CCCCNC(=N)N)C(=O)N1)C(=O)N1C[C@H](O)C[C@H]1C(=O)N[C@@H](CC(C)C)C(=O)N[C@@H](C(C)C)C(=O)N[C@@H](CC(N)=O)C(=O)N1CCC[C@H]1C(=O)N[C@@H](CC(C)C)C(=O)N2 [Example 3] ({NOTA-βAla}-[Sar][Sar][Sar][Sar][Sar][Sar][Sar][Sar][Sar][Sar]K[hArg]DC[Hyp]LVNPLCLHP[dD]W[hArg][Pen]-NH2; lactam 11-13; linker 14-21-28 via TATA)
In vivo; liver
  tissue uptake at 8 min: 1.94 ± 0.35 %ID/g
  tissue uptake at 11 min: 1.6 ± 0.23 %ID/g
  tissue uptake at 14 min: 1.44 ± 0.23 %ID/g
  tissue uptake at 17 min: 1.23 ± 0.15 %ID/g
  tissue uptake at 20 min: 1.14 ± 0.14 %ID/g
  tissue uptake at 23 min: 1.07 ± 0.14 %ID/g
  tissue uptake at 26 min: 0.97 ± 0.16 %ID/g
  tissue uptake at 29 min: 0.91 ± 0.1 %ID/g
  tissue uptake at 0.5 h: 0.92 ± 0.07 %ID/g
  tissue uptake at 1 h: 0.59 ± 0.21 %ID/g
  tissue uptake at 2 h: 0.22 ± 0.04 %ID/g
  tissue uptake at 4 h: 0.13 ± 0.05 %ID/g
In vivo; muscle
  tissue uptake at 2 min: 1.06 ± 0.1 %ID/g
  tissue uptake at 5 min: 1.02 ± 0.18 %ID/g
  tissue uptake at 8 min: 0.97 ± 0.16 %ID/g
  tissue uptake at 11 min: 0.91 ± 0.19 %ID/g
  tissue uptake at 14 min: 0.82 ± 0.12 %ID/g
  tissue uptake at 17 min: 0.74 ± 0.13 %ID/g
  tissue uptake at 20 min: 0.69 ± 0.11 %ID/g
  tissue uptake at 23 min: 0.66 ± 0.14 %ID/g
  tissue uptake at 26 min: 0.67 ± 0.16 %ID/g
  tissue uptake at 29 min: 0.56 ± 0.11 %ID/g
  tissue uptake at 0.5 h: 0.55 ± 0.15 %ID/g
  tissue uptake at 1 h: 0.26 ± 0.05 %ID/g
  tissue uptake at 2 h: 0.07 ± 0.02 %ID/g
  tissue uptake at 4 h: 0.03 ± 0.01 %ID/g
In vivo; [1]
  tissue to tissue ratio at 0.5 h: 1.23 ± 0.25
  tissue to tissue ratio at 1 h: 2.08 ± 0.74
  tissue to tissue ratio at 2 h: 6.97 ± 3.01
  tissue to tissue ratio at 4 h: 15.9 ± 5.85
In vivo; tumor and kidney
  tissue to tissue ratio at 0.5 h: 0.12 ± 0.01
  tissue to tissue ratio at 1 h: 0.13 ± 0.03
  tissue to tissue ratio at 2 h: 0.12 ± 0.06
In vivo; tumor and liver
  tissue to tissue ratio at 0.5 h: 1.57 ± 0.14
  tissue to tissue ratio at 1 h: 2.24 ± 0.68
  tissue to tissue ratio at 2 h: 4.53 ± 1.44
In vivo; tumor and muscle
  tissue to tissue ratio at 0.5 h: 2.69 ± 0.47
  tissue to tissue ratio at 1 h: 5.01 ± 0.82
  tissue to tissue ratio at 2 h: 15.6 ± 3.52
  tissue to tissue ratio at 4 h: 31.4 ± 9.05
In vivo; tumor
  tissue uptake at 2 min: 1.37 ± 0.21 %ID/g
  tissue uptake at 5 min: 1.41 ± 0.13 %ID/g
  tissue uptake at 8 min: 1.45 ± 0.13 %ID/g
  tissue uptake at 11 min: 1.46 ± 0.09 %ID/g
  tissue uptake at 14 min: 1.46 ± 0.07 %ID/g
  tissue uptake at 17 min: 1.48 ± 0.08 %ID/g
  tissue uptake at 20 min: 1.51 ± 0.13 %ID/g
  tissue uptake at 23 min: 1.46 ± 0.09 %ID/g
  tissue uptake at 26 min: 1.46 ± 0.13 %ID/g
  tissue uptake at 29 min: 1.45 ± 0.14 %ID/g
  tissue uptake at 0.5 h: 1.43 ± 0.13 %ID/g
  tissue uptake at 1 h: 1.27 ± 0.28 %ID/g
  tissue uptake at 2 h: 1.04 ± 0.45 %ID/g
  tissue uptake at 4 h: 0.98 ± 0.46 %ID/g
PC-3 tumor-bearing mice; mouse S1
  Tumor/blood: 24.89
  Tumor/bone: 4.39
  Tumor/brain: 44.40
  Tumor/heart: 16.45
  Tumor/intestine: 12.02
  Tumor/kidney: 0.08
  Tumor/liver: 7.63
  Tumor/lung: 10.25
  Tumor/muscle: 11.01
  Tumor/spleen: 7.58
  Tumor/stomach: 22.84
PC-3 tumor-bearing mice; mouse S2
  Tumor/blood: 3.88
  Tumor/bone: 1.30
  Tumor/brain: 40.18
  Tumor/heart: 7.47
  Tumor/intestine: 7.64
  Tumor/kidney: 0.04
  Tumor/liver: 4.34
  Tumor/lung: 4.78
  Tumor/muscle: 2.89
  Tumor/spleen: 4.03
  Tumor/stomach: 14.71
PC-3 tumor-bearing mice; mouse S3
  Tumor/blood: 36.90
  Tumor/bone: 7.02
  Tumor/brain: 91.90
  Tumor/heart: 30.12
  Tumor/intestine: 27.31
  Tumor/kidney: 0.10
  Tumor/liver: 8.30
  Tumor/lung: 19.01
  Tumor/muscle: 19.97
  Tumor/spleen: 10.00
  Tumor/stomach: 34.54
